Test results as given in patent publication US20250290037.

B1: secreted Neprilysin (lacks transmembrane and cytoplasmic domains; secretion signal at N-terminus) (protein)
chain: YDDGICKSSDCIKSAARLIQNMDATTEPCTDFFKYACGGWLKRNVIPETSSRYGNFDILRDELEVVLKDVLQEPKTEDIVAVQKAKALYRSCINESAIDSRGGEPLLKLLPDIYGWPVATENWEQKYGASWTAEKAIAQLNSKYGKKVLINLFVGTDDKNSVNHVIHIDQPRLGLPSRDYYECTGIYKEACTAYVDFMISVARLIRQEERLPIDENQLALEMNKVMELEKEIANATAKPEDRNDPMLLYNKMTLAQIQNNFSLEINGKPFSWLNFTNEIMSTVNISITNEEDVVVYAPEYLTKLKPILTKYSARDLQNLMSWRFIMDLVSSLSRTYKESRNAFRKALYGTTSETATWRRCANYVNGNMENAVGRLYVEAAFAGESKHVVEDLIAQIREVFIQTLDDLTWMDAETKKRAEEKALAIKERIGYPDDIVSNDNKLNNEYLELNYKEDEYFENIIQNLKFSQSKQLKKLREKVDKDEWISGAAVVNAFYSSGRNQIVFPAGILQPPFFSAQQSNSLNYGGIGMVIGHEITHGFDDNGRNFNKDGDLVDWWTQQSASNFKEQSQCMVYQYGNFSWDLAGGQHLNGINTLGENIADNGGLGQAYRAYQNYIKKNGEEKLLPGLDLNHKQLFFLNFAQVWCGTYRPEYAVNSIKTDVHSPGNFRIIGTLQNSAEFSEAFHCRKNSYMNPEKKCRVW
B2: membrane-bound Neprilysin (full-length Neprilysin; includes transmembrane and cytoplasmic domains) (protein)
chain: GKSESQMDITDINTPKPKKKQRWTPLEISLSVLVLLLTIIAVTMIALYATYDDGICKSSDCIKSAARLIQNMDATTEPCTDFFKYACGGWLKRNVIPETSSRYGNFDILRDELEVVLKDVLQEPKTEDIVAVQKAKALYRSCINESAIDSRGGEPLLKLLPDIYGWPVATENWEQKYGASWTAEKAIAQLNSKYGKKVLINLFVGTDDKNSVNHVIHIDQPRLGLPSRDYYECTGIYKEACTAYVDFMISVARLIRQEERLPIDENQLALEMNKVMELEKEIANATAKPEDRNDPMLLYNKMTLAQIQNNFSLEINGKPFSWLNFTNEIMSTVNISITNEEDVVVYAPEYLTKLKPILTKYSARDLQNLMSWRFIMDLVSSLSRTYKESRNAFRKALYGTTSETATWRRCANYVNGNMENAVGRLYVEAAFAGESKHVVEDLIAQIREVFIQTLDDLTWMDAETKKRAEEKALAIKERIGYPDDIVSNDNKLNNEYLELNYKEDEYFENIIQNLKFSQSKQLKKLREKVDKDEWISGAAVVNAFYSSGRNQIVFPAGILQPPFFSAQQSNSLNYGGIGMVIGHEITHGFDDNGRNFNKDGDLVDWWTQQSASNFKEQSQCMVYQYGNFSWDLAGGQHLNGINTLGENIADNGGLGQAYRAYQNYIKKNGEEKLLPGLDLNHKQLFFLNFAQVWCGTYRPEYAVNSIKTDVHSPGNFRIIGTLQNSAEFSEAFHCRKNSYMNPEKKCRVW

Target: 488-labeled fibrillized-Aβ (1-42) (Anaspec), P05067
Sequence (P05067 whole entry, looked up, tested part not stated): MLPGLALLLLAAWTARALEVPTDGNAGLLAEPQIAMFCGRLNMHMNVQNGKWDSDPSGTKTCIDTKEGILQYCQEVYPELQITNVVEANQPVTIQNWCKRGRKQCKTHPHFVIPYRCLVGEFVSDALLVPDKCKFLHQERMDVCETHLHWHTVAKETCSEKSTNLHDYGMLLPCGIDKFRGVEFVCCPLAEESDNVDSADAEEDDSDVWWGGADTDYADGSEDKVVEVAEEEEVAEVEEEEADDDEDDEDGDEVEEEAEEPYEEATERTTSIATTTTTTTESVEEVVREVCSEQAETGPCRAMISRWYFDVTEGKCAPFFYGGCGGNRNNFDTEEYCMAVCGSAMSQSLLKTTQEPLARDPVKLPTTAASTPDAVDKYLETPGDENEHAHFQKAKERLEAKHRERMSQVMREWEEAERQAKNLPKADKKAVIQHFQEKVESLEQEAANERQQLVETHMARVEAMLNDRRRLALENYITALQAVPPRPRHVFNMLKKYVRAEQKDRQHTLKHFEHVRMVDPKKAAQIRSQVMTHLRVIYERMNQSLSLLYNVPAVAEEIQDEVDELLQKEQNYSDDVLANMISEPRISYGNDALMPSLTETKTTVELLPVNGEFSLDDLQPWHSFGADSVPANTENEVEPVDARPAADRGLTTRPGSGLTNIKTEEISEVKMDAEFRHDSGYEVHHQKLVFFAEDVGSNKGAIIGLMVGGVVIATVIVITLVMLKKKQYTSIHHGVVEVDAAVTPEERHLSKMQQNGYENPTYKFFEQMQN

Row | Protein | Aβ phagocytosis over time (slope of internalized fluorescent Aβ signal)
1 | B1 | Decreasing slope over time, as observed in sNEP and NEP data, indicates increasing degradation of Aβ following internalization
2 | B2 | Decreasing slope over time, as observed in sNEP and NEP data, indicates increasing degradation of Aβ following internalization
